From article PMC7398557 (Nature, 2020)

Target: the molecule itself
Assay: cryo-EM structure

B1: human acyl-CoA:diacylglycerol acyltransferase 1 (DGAT1) (enzyme)
chain: MGDRGSSRRRRTGSRPSSHGGGGPAAAEEEVRDAAAGPDVGAAGDAPAPAPNKDGDAGVGSGHWELRCHRLQDSLFSSDSGFSNYRGILNWCVVMLILSNARLFLENLIKYGILVDPIQVVSLFLKDPYSWPAPCLVIAANVFAVAAFQVEKRLAVGALTEQAGLLLHVANLATILCFPAAVVLLVESITPVGSLLALMAHTILFLKLFSYRDVNSWCRRARAKAASAGKKASSAAAPHTVSYPDNLTYRDLYYFLFAPTLCYELNFPRSPRIRKRFLLRRILEMLFFTQLQVGLIQQWMVPTIQNSMKPFKDMDYSRIIERLLKLAVPNHLIWLIFFYWLFHSCLNAVAELMQFGDREFYRDWWNSESVTYFWQNWNIPVHKWCIRHFYKPMLRRGSSKWMARTGVFLASAFFHEYLVSVPLRMFRLWAFTGMMAQIPLAWFVGRFFQGNYGNAAVWLSLIIGQPIAVLMYVHDYYVLNYEAPAAEA
For B1, the “stoichiometry N” value was 2.
